Assay results taken from article PMC3760141 (Cell reports, 2013).

B1: p202 HIN2 (K244-K445) (domain or fragment, mouse, UniProt Q9R002 244-445, looked up)
chain: KLLKESFEGDGYHKGPKQVVALKATKLFTYDSIKSKKMFHATVATDTEFFRVMVFEENLEKKFIPGNTIALSDYFGMYGSLAIHEYSSVSEVKSQNKEDSSSSDERLIEHLKICDLHLQTKERLVDGEFKVYRKSTGNNCICYGIWDDTGAMKVVVSGQLTSVNCEIGNTIRLVCFELTSNADEWFLRSTRYSYMEVIMPEK
B2: mouse AIM2 HIN (domain or fragment, UniProt Q91VJ1 144-341, looked up)
chain: MVAEQEAIREDLQKDPLVVTVLKAINPFECETQEGRQEIFHATVATETDFFFVKVLNAQFKDKFIPKRTIKISNYLWHSNFMEVTSSSVVVDVESNHEVPNNVVKRARETPRISKLKIQPCGTIVNGLFKVQKITEEKDRVLYGIHDKTGTMEVLVLGNPSKTKCEEGDKIRLTFFEVSKNGVKIQLKSGPCSFFKVI
B3: p202 HIN2 R376E (domain or fragment, mouse, UniProt Q9R002 244-445, looked up)
chain: KLLKESFEGDGYHKGPKQVVALKATKLFTYDSIKSKKMFHATVATDTEFFRVMVFEENLEKKFIPGNTIALSDYFGMYGSLAIHEYSSVSEVKSQNKEDSSSSDERLIEHLKICDLHLQTKERLVDGEFKVYEKSTGNNCICYGIWDDTGAMKVVVSGQLTSVNCEIGNTIRLVCFELTSNADEWFLRSTRYSYMEVIMPEK
B4: full-length p202 (purified) (natural protein, mouse, UniProt Q9R002 1-445, looked up)
chain: MSNRNLRSSTNSEFSEGQHQTPSSDSSGHGEDQPQASPGPNKKSHTPKKNISKGAVLHEKPMTVMVLTATEPFNYKEGKENMFHATVATESQYYRVKVFNMDLKEKFTENKFITISKYFNSSGILEINETATVSEAAPNQIIEVPKNIIRSAKETLKISKIKELDSGTLIYGVFAVEKKKVNDKSITFKIKDNEDNIKVVWDKKQHNINYEKGDKLQLFSFHLRKGNGKPILHSGNHSFIKGEKLLKESFEGDGYHKGPKQVVALKATKLFTYDSIKSKKMFHATVATDTEFFRVMVFEENLEKKFIPGNTIALSDYFGMYGSLAIHEYSSVSEVKSQNKEDSSSSDERLIEHLKICDLHLQTKERLVDGEFKVYRKSTGNNCICYGIWDDTGAMKVVVSGQLTSVNCEIGNTIRLVCFELTSNADEWFLRSTRYSYMEVIMPEK
B5: p202, endogenous in bone marrow-derived macrophages (natural protein, UniProt Q9R002 1-445, looked up)
chain: MSNRNLRSSTNSEFSEGQHQTPSSDSSGHGEDQPQASPGPNKKSHTPKKNISKGAVLHEKPMTVMVLTATEPFNYKEGKENMFHATVATESQYYRVKVFNMDLKEKFTENKFITISKYFNSSGILEINETATVSEAAPNQIIEVPKNIIRSAKETLKISKIKELDSGTLIYGVFAVEKKKVNDKSITFKIKDNEDNIKVVWDKKQHNINYEKGDKLQLFSFHLRKGNGKPILHSGNHSFIKGEKLLKESFEGDGYHKGPKQVVALKATKLFTYDSIKSKKMFHATVATDTEFFRVMVFEENLEKKFIPGNTIALSDYFGMYGSLAIHEYSSVSEVKSQNKEDSSSSDERLIEHLKICDLHLQTKERLVDGEFKVYRKSTGNNCICYGIWDDTGAMKVVVSGQLTSVNCEIGNTIRLVCFELTSNADEWFLRSTRYSYMEVIMPEK

How the values were obtained:
SEC-MALS = target: the molecule itself; assay: SEC-MALS
mouse AIM2 HIN = target: B2; assay: ITC
p202 HIN2 (K244-K445) = target: B1; assay: ITC
cross-linking = target: the molecule itself; assay: cross-linking

Binder | stoichiometry N (SEC-MALS) | also measured
B1 | 4 | stoichiometry N (mouse AIM2 HIN): 2 p202 HIN2 per AIM2 HIN
B2 |  | Kd (p202 HIN2 (K244-K445)): 12.6 µM
B3 | 2 | 
B4 | 4 | 
B5 |  | stoichiometry N (cross-linking): 4
